First the molecules themselves.
B1: E. coli MS115-1 Trip13 E159Q (purified) (enzyme)
chain: MNVKPSLDELFERRINFPDFEPQERLARLVGLDEHKDRLSKILGLLVNPYGIQEWAKKYHPDARAAVDTVLRRPPLVVLAGDVGSGKTELAETIGDAVARQEDIDITLYPLSLATRGQGRVGEMTQLVSAAFDYTIEAADKLKNTNGKARGAVLLLIDQADALAQSRENAQMHHEDRAGVNAFIRGIDRIANQKLPAAVLMCTNRLKALDPAVQRRAAEILTFSRPNDEQRHYLLHSKLTGLGLNSTAVEELVRLTGPRDPNSPGFTFSDITQRLIPSIILAAYPYNAVSVHSALQVVNKMTPTPAFIDRQ
B2: P. aeruginosa ATCC27853 HORMA3 (purified, in vitro reconstitution) (natural protein)
chain: MTTVVSRTFRSSPHRDALQTWDAIVELLTQGKDGTARSELRAVTGVAASLIADQAPKSAPIVATCDGPRTRIYCLFDEDAIDGDDANEEVLGFEPLKGDWGVSLPCPKEQLGWVQSALKKHSSRIIARDLSQGIATQAQADAGQALSLDLGGFLKS
B3: P. aeruginosa ATCC27853 HORMA2 (purified alone, crystallised) (natural protein, UniProt P0DTF6 1-166, looked up)
chain: MSTVATYSYTHSVTYVTDNILKSLKDIILLSGLDPEHFADRWESNTRAIKTWLGTGDLRKVILEIYNPATDKLVTRWDIDIVYGWSDGDGSFWTDTEQLKYAIKKAGLLPSQAKYKLMLDTKPGRPDVEGWSKGSYRSTDGMVKQSLGSTVEHSGLAGQAGYWRQR
B4: P. aeruginosa ATCC27853 HORMA2 (purified in complexes) (natural protein)
chain: B3 chain
B5: E. coli MS115-1 HORMA with N-terminal His6-tag (purified) (natural protein, UniProt D7Y2H3 1-172, looked up)
chain: MSSYSYTVAETQTFSVTHARHMAAKVATDLRRMQRFYGYPSDADIEAYEEELVVFLKAGYLGEVSYGFQKNNNWIEPTLRYTAGDLLGSGTDDDPGKIRPGKDVSGASFYSFMTYSSKYLNATQSEKDTALKDLPFKRVGAQSPGINGYLENDKTYSAGGRSLTRTSVRNFV
B6: 40 bp dsDNA (5'-FAM Oligo #1/Oligo #2) (dsDNA)
DNA 1: CCTTTCGAAGACTCATCACGGAGAGCAGACATCATCTGGC
DNA 2: GCCAGATGATGTCTGCTCTCCGTGATGAGTCTTCGAAAGG

Data set [1] addresses Rhizobiales sp. Trip13 (Rhizobiales sp.). Briefly: crystal structure.
Data set [2] has as its target E. coli MS115-1 CdnC (purified, in complexes with HORMA) (E. coli MS115-1) (UniProt D7Y2H2). Briefly: crystal structure.
The target of data set [3] is T1, Ec CdnC:HORMA-ΔN (crystal) (Escherichia coli, UniProt D7Y2H2).
T1 sequence (D7Y2H2 1-321): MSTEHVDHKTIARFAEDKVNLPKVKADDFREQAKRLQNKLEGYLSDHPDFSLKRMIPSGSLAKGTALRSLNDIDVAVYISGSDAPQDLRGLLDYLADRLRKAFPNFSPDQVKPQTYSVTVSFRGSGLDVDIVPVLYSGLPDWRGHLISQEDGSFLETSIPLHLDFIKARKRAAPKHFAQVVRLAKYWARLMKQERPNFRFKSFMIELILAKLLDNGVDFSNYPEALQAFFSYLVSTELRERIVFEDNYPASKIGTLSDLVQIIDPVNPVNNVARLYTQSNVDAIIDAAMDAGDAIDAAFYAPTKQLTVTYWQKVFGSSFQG
T1 sequence (D7Y2H3 12-172 partner): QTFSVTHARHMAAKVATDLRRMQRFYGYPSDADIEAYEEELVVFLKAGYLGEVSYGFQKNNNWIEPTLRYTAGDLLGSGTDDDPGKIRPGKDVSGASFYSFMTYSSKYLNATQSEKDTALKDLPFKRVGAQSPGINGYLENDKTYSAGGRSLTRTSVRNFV
Nature of the data set: crystal structure. The data set is classed as binding. To be noted: active site; copies contain either no ligand or AMP; co-purified.

The target in a further data set is T2, Ec CdnC:HORMA:Trip13^EQ (Escherichia coli, UniProt D7Y2H4, E159Q).
T2 sequence (D7Y2H4 1-311 E159Q): B1 chain
T2 sequence (D7Y2H2 1-321 partner): T1 sequence (D7Y2H2 1-321)
T2 sequence (D7Y2H3 1-172 partner): B5 chain
Nature of the data set: crystal structure, […] Å. The data set is classed as binding. To be noted: four of six Trip13 subunits (A-D); 1 mM ATP, 5 mM MgCl2.

The target in a further data set is T3, Ec CdnC (Escherichia coli, UniProt D7Y2H2).
T3 sequence (D7Y2H2 1-321): T1 sequence (D7Y2H2 1-321)
Briefly: crystal structure, […] Å. As to conditions: Mg2+; active site; ATP co-purified from E. coli. The data set is classed as binding.

Data set [4] has as its target E. coli MS115-1 CdnC (purified, in complexes with HORMA) (E. coli MS115-1) (UniProt D7Y2H2). Briefly: SEC. Background: In gel filtration, larger molecules generally elute earlier.
Data set [5] has the same target. Briefly: SEC. This is another data set of the same source.
Data set [6] deals with the molecule itself. Nature of the data set: crystal structure.
Data set [7] concerns the target T4, Ec HORMA:CdnC complex (co-expressed, purified, 1:1) (E. coli MS115-1, UniProt D7Y2H2 1-321; D7Y2H3 1-172).
T4 sequence (looked up) 1: T1 sequence (D7Y2H2 1-321)
T4 sequence (looked up) 2: B5 chain
Briefly: SEC-MALS.

Data set [8] addresses B4. Nature of the data set: SEC-MALS.
For data set [9], the target named is T5, P. aeruginosa ATCC27853 CdnD (purified) (P. aeruginosa ATCC27853, UniProt P0DTF7 1-300).
T5 sequence: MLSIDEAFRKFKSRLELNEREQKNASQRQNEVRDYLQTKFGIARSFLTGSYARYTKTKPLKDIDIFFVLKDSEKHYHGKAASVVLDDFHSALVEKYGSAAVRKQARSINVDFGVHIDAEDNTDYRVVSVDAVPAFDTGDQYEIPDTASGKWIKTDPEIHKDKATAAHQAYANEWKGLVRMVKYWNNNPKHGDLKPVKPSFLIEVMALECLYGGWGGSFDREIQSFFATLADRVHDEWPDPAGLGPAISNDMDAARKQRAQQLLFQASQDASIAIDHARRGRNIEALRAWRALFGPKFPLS
Nature of the data set: SEC-MALS.

The target in data set [10] is B4. Nature of the data set: crystal structure.
Data set [11] deals with the molecule itself. Nature of the data set: crystal structure. This is another data set of the same source.
In data set [12] the target is T6, E. coli MS115-1 CdnC (purified, in complexes with HORMA) (E. coli MS115-1, UniProt D7Y2H2 1-321).
T6 sequence (looked up): T1 sequence (D7Y2H2 1-321)
Nature of the data set: SEC-MALS.

For data set [13], the target named is B1. Briefly: crystal structure.
In a further data set the target is T7, Pa CdnD (Pseudomonas aeruginosa ATCC27853, UniProt P0DTF7 1-300).
T7 sequence: T5 sequence
Nature of the data set: filter binding.

Several values for one entry are separate records, joined by “and”; a condition that tells them apart may be missing. Equal entries are not always repeated. Where two headings read alike, the source gives them in different places.

Usually stoichiometry N stands for the number of molecules, sites or subunits per partner or assembly.

Regarding Rhizobiales sp. Trip13 (enzyme), the stoichiometry N in data set [1] amounted to 6. “Ec HORMA-ΔN with N-terminal His6-tag (from UniProt D7Y2H3 12-172) (domain or fragment)”: the stoichiometry N (HORMA-ΔN per CdnC (2:2 complex)) in data set [2] was determined as 1.

Consider `Nc1ncnc2c1ncn2[C@@H]1O[C@H](COP(=O)(O)O)[C@@H](O)[C@H]1O` [AMP], for which the crystal structure result in data set [3] is on record as “contain either no ligand or AMP in the active site”. Regarding `Nc1ncnc2c1ncn2[C@@H]1O[C@H](COP(=O)(O)OP(=O)(O)OP(=O)(O)O)[C@@H](O)[C@H]1O` [ATP], on Ec CdnC:HORMA:Trip13^EQ, the “crystal structure, 2.64 Å” value was “with four subunits (monomers A-D) bound to ATP”. The “crystal structure, 1.44 Å” value on Ec CdnC is recorded as “the active site is occupied by one molecule of ATP that was co-purified”. Turning to “Ec HORMA-ΔN with the His6-tag removed (from UniProt D7Y2H3 12-172) (domain or fragment)”, the stoichiometry N (HORMA-ΔN per CdnC) in [4] and in data set [5] was 1 in each case. As to B1, the “stoichiometry N” value is 6 in “crystal structure [6]” and 6 Trip13^EQ per 1 CdnC:1 HORMA in data set [7].

On to B2, for which the entries for the “stoichiometry N” value in data set [8] and in [9] were 1 HORMA3 per HORMA2 and 1 HORMA3 per CdnD, respectively. In the case of EVMEFNP [Peptide 1 (EVMEFNP), tag cleaved], the binding result in data set [10] is given as “binds”.

Turning to B3, in “crystal structure [11]”, the binding result is given as “binds”.

For the molecule B4, the “stoichiometry N” value in [9] was found to be 1 HORMA2 per CdnD. For the molecule B5, the “stoichiometry N” value in data set [12] was 1 HORMA per CdnC (1:1 complex) and 1 HORMA per CdnC (2:2 complex). The binding result in data set [13] is listed as “binds”. Turning to B6, the binding result with Pa CdnD was “no binding”.

These data come from publication PMC7036143 (Molecular cell, 2020).
